Measured values as given in patent publication US20120276102A1 (Pfizer, published 2012).
Positions count from the first letter of the chain named.

T1: human IL-2Rβ (human, UniProt P14784 27-239)
T1 sequence (looked up): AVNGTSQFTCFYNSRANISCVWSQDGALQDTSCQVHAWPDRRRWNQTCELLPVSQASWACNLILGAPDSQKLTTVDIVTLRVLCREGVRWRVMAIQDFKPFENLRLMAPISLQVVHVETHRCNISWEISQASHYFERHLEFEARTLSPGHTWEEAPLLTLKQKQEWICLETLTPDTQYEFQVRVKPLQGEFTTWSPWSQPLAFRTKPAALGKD

B1: AbP (antibody, human IgG1, V domains shown)
VH: QVQLQESGPGLVKPSETLSLTCAVSGYSISSGYYWGWIRQPPGKGLEWIGSISHTGNTYYNPPLKSRVTISVDTSKNQFSLKLSSVTAADTAVYYCARGGGISRPEYWGQGTLVTVSS
VL: SSELTQDPAVSVALGQTVRITCQGDSLRTYYASWYQQKPGQAPVLVIYGKHKRPSGIPDRFSGSSSGNTASLTITGAQAEDEADYYCVSRSAKGNPHVLFGGGTQLTVL
notes: CDR3 graft, residue limits derived as for m29; also called VHP/VL20; VHPTM/VL20
B2: parental 18A5 antibody (antibody, V domains shown)
VH: B1 VH with P14T, Q110K
VL: SSELTQDPPVSVALGQTVTLTCQGDSLRTYYASWYQQKSGQAPILLLYGKHKRPSGIPDRFSGSTSGDTASLTITGAQAEDEADYYCNSRDSSGNPHVLFGGGTQLTVL
notes: also called 18A5 IgG
B3: AbS (antibody, V domains shown)
VH: B1 VH
VL: B1 VL with V88M, A92I, K93W
notes: CDR3 graft, residue limits derived as for m29; also called VHP/VL6; VHPTM/VL6
B4: AbT (antibody, human IgG1, V domains shown)
VH: B1 VH
VL: B1 VL with S89A, A92N
notes: CDR3 graft, residue limits derived as for m29; also called VHP/VL9; VHPTM/VL9
B5: AbU (antibody, human IgG1, V domains shown)
VH: B1 VH
VL: B1 VL with V88T, S89T, A92N
notes: CDR3 graft, residue limits derived as for m29; also called VHP/VL25; VHPTM/VL25
B6: AbR (antibody, human IgG1, V domains shown)
VH: B1 VH with G99F, G100M, I102F, S103G
VL: B1 VL with S89T, A92V
notes: CDR3 graft, residue limits derived as for m29; also called VH3/VL18; VH3DM/VL18
B7: AbQ (antibody, human IgG1, V domains shown)
VH: B1 VH with G99F, G100M, I102F, S103G
VL: B1 VL with S89A, A92V, K93V
notes: CDR3 graft, residue limits derived as for m29; also called VH3/VL2; VH3DM/VL2
B8: AbO (antibody, human IgG1, V domains shown)
VH: B1 VH
VL: B1 VL with S89T
notes: CDR3 graft, residue limits derived as for m29; also called VHP/VL16; VHPTM/VL16

biological target: T2, human IL-21R extracellular domain His-Flag fusion protein (human, UniProt Q9HBE5 20-232); assay: SPR, Ab captured on anti-human IgG, replicate experiment
T2 construct: Biotinylated in the HTRF screen; also called hIL-21R-H/F; human IL-21R-H/F
Method: The kinetics of binding of anti-IL-21R antibodies to human and murine IL-21R-H/F was tested on a BIACORE™ surface plasmon resonance instrument. Anti-human IgG antibodies (Invitrogen Corporation) were immobilized onto a research-grade carboxy-methyl-dextran chip (CM5) using standard amine coupling. The surface was activated with EDC/NHS for 7 min at a flow of 20 μl/min. The first flow cell was used as a reference surface to correct for bulk refractive index, matrix effects, and nonspecific binding. The anti-human-Fc antibody was diluted to 20 μg/ml in 10 mM sodium acetate buffer (pH 5.0), and 2950-3405 resonance units (RU) were captured on each of the four flow cells. Remaining activated groups were blocked with 1.0 M ethanolamine-HCl (pH 8.5).
Anti-IL-21R antibodies were diluted to 0.1-0.2 μg/ml in HBS/EP buffer supplemented with 0.2% bovine serum albumin and loaded onto the BIACORE™ chip. Following a brief washing period, solutions of 0-100 nM human IL-21R-H/F or 10-500 nM murine IL-21R-H/F were injected over the chip at a flow rate of 50 μl/min. The association phase was run for 3 min for human and murine IL-21R kinetics, and the dissociation phase was monitored for 15 min for hIL-21R and for 5 min for mIL-21R, followed by two 10 μl injections and one 30 μl injection of glycine (pH 1.5), to regenerate a fully active capturing surface. All binding experiments were done at 25° C. in HBS/EP buffer, and the sample rack was kept at 15° C. Blank and buffer effects were subtracted for each sensorgram using double referencing.

T2 sequence (Q9HBE5 20-232): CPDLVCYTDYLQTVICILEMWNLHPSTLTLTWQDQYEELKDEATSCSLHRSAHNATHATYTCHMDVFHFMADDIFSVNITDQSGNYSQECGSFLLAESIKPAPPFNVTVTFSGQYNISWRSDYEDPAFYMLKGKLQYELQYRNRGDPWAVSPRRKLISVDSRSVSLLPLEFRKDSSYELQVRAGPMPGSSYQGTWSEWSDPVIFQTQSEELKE

| Kd [nM] | koff [s⁻¹] | kon [M⁻¹ s⁻¹] | Binder |
| --- | --- | --- | --- |
| 0.436 | 0.000102 | 233000 | B1 |
| 4.4 | 0.00134 | 304000 | B2 |
| 1.51 | 0.000305 | 202000 | B3 |
| 0.272 | 7.42e-05 | 273000 | B4 |
| 0.329 | 7.83e-05 | 238000 | B5 |
| 0.394 | 9.76e-05 | 248000 | B6 |
| 0.213 | 9.34e-05 |  | B7 |

biological target: T3, human soluble IL-4R (human, UniProt P24394 26-232, limits assumed); assay: BIACORE: antibody captured on anti-human IgG; 50 nM analyte injected
T3 construct: also called human sIL-4R
Method: (§1) The specificity of binding of a subset of transiently expressed anti-IL-21R binding proteins (here antibodies) was tested on a BIACORE™ 2000 surface plasmon resonance instrument. Anti-human-IgG, anti-murine immunoglobulin antibodies, and murine IL-21R-H/F were immobilized onto a research-grade carboxymethyl-dextran chip (CM5) using standard amine coupling. The sensor chip surface was activated with EDC/NHS for 7 min at a flow rate of 20 μl/min. The first flow cell was used as reference surface to correct for bulk refractive index, matrix effects, and nonspecific binding. […] Remaining activated groups were blocked with 1.0 M ethanolamine (pH 8.0). The molecular weights of the anti-human IgG and the anti-murine IgG were both 150 kD, and the molecular weight of the IL-21R monomer was 27 kD.
(§2) Conditioned media containing anti-IL-21R antibodies and antibody controls (murine anti-human IL-2Rβ and murine anti-human IL-4R(R&D Systems, Minneapolis, Minn.); human anti-human IL-13 (Wyeth, Cambridge, Mass.)) were diluted in HBS/EP buffer supplemented with 0.2% bovine serum and injected onto all four flow cells of the BIACORE™ chip, capturing 500-700 (RU) of antibody on the species-appropriate capture antibody. Following a 5 sec washing period, 50 nM solutions of a positive control protein (murine IL-21R-H/F), two human proteins related to IL-21R (human IL-2Rβ and human sIL-4R(R&D Systems)), or an unrelated His/FLAG-tagged protein (human IL-13-H/F) were injected over the captured antibodies on the chip. The association and dissociation phases were monitored for 120 and 180 sec, respectively, followed by two 5 μl injections of glycine (pH 1.5) to regenerate a fully active capturing surface. All binding experiments were done at 25° C. in HBS/EP buffer. Blank and buffer effects were subtracted for each sensorgram using double referencing.

| binding result | Binder |
| --- | --- |
| no binding (tested: 50 nM) | B1 |
| no binding (tested: 50 nM) | B8 |
| no binding (tested: 50 nM) | B3 |
| no binding (tested: 50 nM) | B4 |
| no binding (tested: 50 nM) | B5 |
| no binding (tested: 50 nM) | B6 |
| no binding (tested: 50 nM) | B7 |

biological target: T4, human IL-13-His/FLAG (human, UniProt P35225 35-146, limits assumed); assay: as above
T4 construct: Unrelated His/FLAG-tagged control; also called human IL-13-H/F
Method: as §1, §2

T4 sequence (P35225 35-146 limits assumed): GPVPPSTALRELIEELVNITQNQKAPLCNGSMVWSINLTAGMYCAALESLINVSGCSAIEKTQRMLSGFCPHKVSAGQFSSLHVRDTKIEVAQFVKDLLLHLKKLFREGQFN

| binding result | Binder |
| --- | --- |
| no binding (tested: 50 nM) | B1 |
| no binding (tested: 50 nM) | B8 |
| no binding (tested: 50 nM) | B3 |
| no binding (tested: 50 nM) | B4 |
| no binding (tested: 50 nM) | B5 |
| no binding (tested: 50 nM) | B6 |
| no binding (tested: 50 nM) | B7 |

biological target: T1, human IL-2Rβ; assay: as above
Method: as §1, §2

| binding result | Binder |
| --- | --- |
| no binding (tested: 50 nM) | B1 |
| no binding (tested: 50 nM) | B8 |
| no binding (tested: 50 nM) | B3 |
| no binding (tested: 50 nM) | B4 |
| no binding (tested: 50 nM) | B5 |
| no binding (tested: 50 nM) | B6 |
| no binding (tested: 50 nM) | B7 |
